# Columns and labels:
# [1] = system: S100b/RAGE-induced production of TNF-α in THP-1 cells; assay: S100b/RAGE-induced production of TNF-α in THP-1 cells; format: cell-based; conditions: 10 μg protein, 24 hours
# Source text: Use of the RAGE fusion proteins of the present invention to modulate expression of the cellular effector TNF-α is shown in FIG. 10. THP-1 myeloid cells may be cultured in RPMI-1640 media supplemented with 10% FBS and induced to secrete TNF-α via stimulation of RAGE with S100b. When such stimulation occurs in the presence of a RAGE fusion protein, induction of TNF-α by S100b binding to RAGE may be inhibited.
# Previous work has shown that the myeloid THP-1 cells may secrete TNF-α in response to RAGE ligands. In this assay, THP-1 cells were cultured in RPMI-1640 media supplemented with 10% FBS using a protocol provided by ATCC. […] The amount of TNF-α secreted by the THP-1 cells was measured 24 hours after the addition of the proteins to the cell culture using a commercially available ELISA kit for TNF-α (R&D Systems, Minneapolis, Minn.).
# Fc receptor = Fc receptor activation: TNF-α secretion from THP-1 cells; format: cell-based
# Source text: Fc stimulation results in TNF-α secretion.
# mouse model of AD = assay: APP transgenic mouse model of AD; format: in vivo, mice
# Experimental: Experiments were performed to evaluate whether TTP-4000 could affect amyloid formation and cognitive dysfunction in a mouse model of AD. The experiments utilized transgenic mice expressing the human Swedish mutant amyloid precursor protein (APP) under the control of the PDGF-B chain promoter. Over time, these mice generate high levels of the RAGE ligand, amyloid beta (Aβ).
# The APP mice (male) used in this experiment were designed by microinjection of the human APP gene (with the Swedish and London mutations) into mouse eggs under the control of the platelet-derived growth factor B (PDGF-B) chain gene promoter. The mice were generated on a C57BL/6 background and were developed by Molecular Therapeutics Inc. Animals were fed ad libitum and maintained by brother sister mating. The mice generated from this construct develop amyloid deposits starting at 6 months of age. Animals were aged for 6 months and then maintained for 90 days and sacrificed for amyloid quantification.
# APP transgenic mice were administered vehicle or TTP4000 every other day [qod (i.p.)] for 90 days starting at 6 months of age. At the end of the experiment, animals were sacrificed and examined for Aβ plaque burden in the brain (i.e., plaque number). A 6-month control APP group was used to determine the baseline of amyloid deposits. In addition, at the end of the study, the animals were subjected to behavioral (Morris water maze) analysis. The investigators were blinded to the study compounds. Samples were given to the mice at 0.25 ml/mouse/every other day.
# For histological examination, the animals were anesthetized with an intraperitoneal injection (IP) of sodium pentobarbital (50 mg/kg). The animals were transcardially perfused with 4° C., phosphate-buffered saline (PBS) followed by 4% paraformaldehyde. The brains were removed and placed in 4% paraformaldehyde over night. The brains were processed to paraffin and embedded. Ten serial 30-μm thick sections through the brain were obtained. Sections were subjected to primary antibody overnight at 4° C. (Aβ peptide antibody) in order to detect the amyloid deposits in the brain of the transgenic animals (Guo et al., J. Neurosci., 22:5900-5909 (2002)). Sections were washed in Tris-buffered saline (TBS) and secondary antibody was added and incubated for 1 hour at room temperature. After washing, the sections were incubated as instructed in the Vector ABC Elite kit (Vector Laboratories) and stained with […] (DAB). The reactions were stopped in water and cover-slipped after treatment with xylene. The amyloid area in each section was determined with a computer-assisted image analysis system, consisting of a Power Macintosh computer equipped with a Quick Capture frame grabber card, Hitachi CCD camera mounted on an Olympus microscope and camera stand. NIH Image Analysis Software, v. 1.55 was used. The images were captured and the total area of amyloid was determined over the ten sections. A single operator blinded to treatment status performed all measurements. Summing the amyloid volumes of the sections and dividing by the total number of sections was done to calculate the amyloid volume.
# For quantitative analysis, an enzyme-linked immunosorbent assay (ELISA) was used to measure the levels of human total Aβ, Aβtotal and Aβ1-42 in the brains of APP transgenic mice (Biosource International, Camarillo, Calif.). Aβtotal and Aβ1-42 were extracted from mouse brains by guanidine hydrochloride and quantified as described by the manufacturer. […]
# [2] = Solubility of TTP-4000 in formulation buffers; format: physicochemical; conditions: citrate versus histidine buffers
# Experimental: Formulations containing sodium acetate, sodium citrate, sodium phosphate, sodium succinate, histidine, and sodium chloride were tested along with sucrose and mannitol. Various pH's between 5.5 and 7.0 were also evaluated.
# Based on the solubility of the RAGE fusion protein in formulations containing one or more of sodium citrate, histidine, sucrose, mannitol, and Tween 80 at a pH of 7.0 or less, formulations containing one or more of these buffers, lyoprotectants, or surfactant were selected for further study.
# [3] = treated for 3 months, qod i.p., versus vehicle and human IgG1
molecule,measurement,setting,value
TTP-4000: four domain RAGE fusion protein: human RAGE N-terminal sequence (to position 251) linked to human IgG Fc (γ1) without hinge; SEQ ID NO: 34/56 (protein) QNITARIGEPLVLKCKGAPKKPPQRLEWKLNTGRTEAWKVLSPQGGGPWDSVARVLPNGSLFLPAVGIQDEGIFRCQAMNRNGKETKSNYRVRVYQIPGKPEIVDSASELTAGVPNKVGTCVSEGSYPAGTLSWHLDGKPLVPNEKGVSVKEQTRRHPETGLFTLQSELMVTPARGGDPRPTFSCSFSPGLPRHRALRTAPIQPRVWEPVPLEEVQLVVEPEGGAVAPPSVFLFPPKPKDTLMISRTPEVTCVVVDVSHEDPEVKFNWYVDGVEVHNAKTKPREEQYNSTYRVVSVLTVLHQDWLNGKEYKCKVSNKALPAPIEKTISKAKGQPREPQVYTLPPSRDELTKNQVSLTCLVKGFYPSDIAVEWESNGQPENNYKTTPPVLDSDGSFFLYSKLTVDKSRWQQGNVFSCSVMHEALHNHYTQKSLSLSPGK,reduction of S100b induction of TNF-α,[1]; S100b 0.1 mg/ml FAC,~70%
same,"S100b induction of TNF-α, comparison in words",[1]; S100b 0.1 mg/ml,at least as effective in blocking S100b induction of TNF-α as is sRAGE
same,stimulation of TNF-α release from cells,Fc receptor; conditions where human IgG stimulation of TNF-α release is detected,does not stimulate TNF-α release
same,TNF generated,"Fc receptor; well precoated with 10 ug/well heat aggregated protein, THP-1 cells, 24 hours",less than 2 ng/well
same,inflammatory cytokines IL-1 and TNF-α,mouse model of AD; data not shown,can reduce the inflammatory cytokines IL-1 and TNF-α
same,Aβ plaques in the brain,mouse model of AD; [3],fewer Aβ plaques
same,cognitive dysfunction (Morris water maze),mouse model of AD; [3],less cognitive dysfunction
same,"solubility in formulations, in words",[2],may be more soluble in formulations containing histidine

# Reference: patent US8344120B2, “Nucleic acid molecules encoding rage fusion proteins” (TransTech Pharma, Inc., priority 2006, dated 2013)
